Laboratory results from publication PMC3828196 (PLoS ONE, 2013).
“And” between values parts separate entries of the source, which are not always exact repeats. Equal entries are not always repeated. “Also recorded” adds a separate entry of the source. Where two headings read alike, the source gives them in different places.

Columns and labels:
[1] = molecular target: KpDsbA; assay: ITC binding of DsbB-derived peptides to KpDsbA; design: species or system K. pneumoniae
Procedure: Amidation and acetylation ensure that there are no charges on the peptide termini, as these are not present in the native DsbB loop sequence. Binding affinity was measured using a MicroCal™ Auto-iTC200 from (GE Healthcare, USA) at 25 °C. The sample cell was loaded with 200 μL of 100 μM KpDsbA or EcDsbA in 25 mM HEPES, 50 mM NaCl, pH 7.4, and DMSO 0.8 %. The peptide (3 mM) diluted in the same buffer was titrated with an initial injection of 0.5 μL into DsbA, followed by 19 consecutive injections (2.0 μL) offset by 180 s, while the solution was constantly stirred (1000 rpm). Data were fitted to a single-site binding model using MicroCal™ Origin 7.0 software (Origin 7 SR4 v7.0552). Experiments were conducted in triplicate and affinity and thermodynamic parameters are reported as means and standard deviations (Table 4).

[2] = molecular target: Klebsiella pneumoniae DsbA (K. pneumoniae); assay: ITC; peptide (3 mM) titrated into 100 μM DsbA in the cell; 25 mM HEPES, 50 mM NaCl, pH 7.4, DMSO 0.8 %; 25 °C by the methods (20 °C by the footnote of Table 4); single-site binding model; apparent Kd; triplicate
[3] = molecular target: Cys30 (UniProt position 49, FFSFFCPHCYQ); settings: not stated; cited from earlier work
[4] = molecular target: Cys30 (UniProt position 49, FFSFYCPHCNT); settings: not stated; cited from earlier work
[5] = molecular target: T1, Cys30 (UniProt position 49, FFSFYCPHCYQ); assay: UV-vis; settings: 22 °C; 200 mM KCl plus buffer salts (total ionic strength not stated); 10 mM Tris, 10 mM sodium citrate, 10 mM K2HPO4, 10 mM KH2PO4, 200 mM KCl, 1 mM EDTA; Reduced KpDsbA (40 μM), with oxidised KpDsbA as reference
[6] = molecular target: T1, Cys30; settings: not stated; cited from earlier work
[7] = Temperature-induced unfolding by far-UV CD; format: physicochemical
Procedure: Temperature-induced unfolding of native SeDsbA and KpDsbA was determined as described previously using a Jasco J-810 circular dichroism (CD) spectropolarimeter (Jasco, USA). The redox state of the protein was confirmed using Ellman’s reagent. The largest difference in molar ellipticity for oxidized or reduced enzymes was calculated from initial far-UV CD spectra (from 250 nm to 190 nm) recorded at 25 °C and 95 °C, respectively. The unfolding of oxidized and reduced protein (SeDsbAox = 220 nm, SeDsbAred = 220.5 nm and KpDsbAox = 211 nm, KpDsbAred = 209.5 nm) was monitored at a heat rate of 1 K / min from 298 K to 368 K in a 1 mm quartz cuvette. All measurements were carried out with 10 µM protein in 100 mM NaH2PO4 / Na2HPO4, 1 mM EDTA at pH 7.0. Samples for measurement of reduced enzyme contained 0.75 mM DTT. Raw data were analyzed in Prism and fitted to a two-state unfolding model as described previously. The standard deviation was measured from three replicates.

[8] = In vitro peptide dithiol oxidation (europium fluorescence); format: biochemical; settings: pH 5.5
Procedure: A peptide ([…]) with a 1,4,7,10-tetraazacyclododecane-1,4,7,10-tetraacetic acid (DOTA) group amide-coupled to the N-terminus, and a methylcoumarin amide-coupled to the ε-amino group of the C-terminal lysine, was purchased from AnaSpec (Fremont, CA). Lyophilized peptide was re-suspended in 100 mM imidazole, pH 6, at a concentration of 2 mM. Europium trifluoromethanesulfonate (Sigma Aldrich, Australia) solution (100 mM) was added to the peptide at a molar ratio of 2:1 and incubated for 5 min at room temperature, to allow europium chelation. The peptide solution was then immediately aliquoted, flash frozen in liquid nitrogen and stored at -80°C. An increase in fluorescence occurs upon oxidation of the peptide cysteines to form a disulfide. Thus, fluorescence can be used to monitor the capacity of DsbA enzymes to catalyse dithiol oxidation.
Assays were conducted using a Synergy H1 multimode plate reader (BioTek, USA) with the excitation wavelength set to 340 nm and emission to 615 nm. A 150 μs delay before reading and 100 μs reading time were used for time-resolved fluorescence. The assay was performed in a white 384-well plate (Perkin Elmer OptiPlate-384, Part #: 6007290). The buffer consisted of 50 mM MES, 50 mM NaCl and 2 mM EDTA at pH 5.5. The reaction consisted of a 50 μL solution in each well, containing 160 nM EcDsbA, KpDsbA or SeDsbA, 1.6 μM EcDsbB (crude membrane extracts, containing ubiquinone) and 8 μM peptide substrate added last to initiate the reaction. Samples containing buffer and DsbA or buffer and peptide were used as controls. Data were measured for three replicates and are presented as mean values, with the standard error of the mean indicated by error bars.

[9] = SeDsbA, cited from earlier work
From the text: The past 5 years has seen the characterization of DsbA enzymes from many other bacteria including DsbAs with varying degrees of sequence identity to EcDsbA such as Neisseria meningitidis DsbA1 (NmDsbA1, 23% identity), Pseudomonas aerugin ... || EcDsbA and SeDsbA share 86 % sequence identity and both have been characterized previously. […] Both are similarly oxidizing enzymes: the redox potentials of EcDsbA and SeDsbA are -122 and -126 mV, respectively, whereas the range for all DsbAs is -80 to -163 mV (Table 1 ). In b ... || (+ 1 further places)

[10] = test system: insulin; settings: cited from earlier work
[11] = test system: E. coli dsbA- null (JCB817); settings: SeDsbA, null mutant motility assay; ref [44]; cited from earlier work
[12] = test system: insulin; assay: Insulin disulfide reductase activity; format: biochemical; settings: 10 μM enzyme, 0.33 mM DTT, 2 mM EDTA, 100 mM phosphate pH 7.0, 0.131 mM insulin; OD650nm turbidity; three repeats
Procedure: Under mild reducing conditions, DsbA proteins can reduce the intermolecular disulfide bonds formed between insulin chains A and B [3]. The rate of disulfide bond reduction can be spectroscopically followed at OD650nm by an increase in turbidity resulting from production of the insoluble insulin chain B [20]. Samples were prepared in 1 cm cuvettes containing 10 μM of protein (KpDsbA, EcDsbA or EcDsbC), 0.33 mM DTT and 2 mM EDTA in 100 mM NaH2PO4 / Na2HPO4 titrated to pH 7.0. Catalysis was initiated by the addition of 0.131 mM insulin (I0516, Sigma-Aldrich, Australia) to the sample mixture. The assay was repeated three times and data were plotted showing standard deviations.

[13] = molecular target: T2, Escherichia coli DsbA (E. coli, UniProt P0AEG4 20-208); assay: ITC; peptide (3 mM) titrated into 100 μM DsbA in the cell; 25 mM HEPES, 50 mM NaCl, pH 7.4, DMSO 0.8 %; 25 °C by the methods (20 °C by the footnote of Table 4); single-site binding model; apparent Kd; triplicate; settings: both partners purified
T2 construct: also called EcDsbA; E. coli DsbA; source: purified as described for KpDsbA (BL21(DE3)pLys, Talon resin, TEV protease, Superdex75)
T2 sequence (looked up): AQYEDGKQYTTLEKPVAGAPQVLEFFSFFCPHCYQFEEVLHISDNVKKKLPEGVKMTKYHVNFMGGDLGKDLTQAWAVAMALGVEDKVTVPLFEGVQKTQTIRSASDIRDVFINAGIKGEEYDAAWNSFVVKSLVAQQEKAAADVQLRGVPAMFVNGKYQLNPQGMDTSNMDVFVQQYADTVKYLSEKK

CC(=O)N1CCC[C@H]1C(=O)N[C@@H](CO)C(=O)N1CCC[C@H]1C(=O)N[C@@H](Cc1ccccc1)C(=O)N[C@@H](C)C(=O)N[C@H](C(=O)N[C@@H](CS)C(=O)N[C@@H](CC(=O)O)C(N)=O)[C@@H](C)O
Kd ([1]; ITC (Auto-iTC200), cell 100 μM KpDsbA, peptide 3 mM, 25 mM HEPES, 50 mM NaCl, pH 7.4, DMSO 0.8 %, 25 °C in method, 20 °C in table footnote, single-site model, apparent Kd, mean ± SD, three independent experiments, read-out: Kd): 17.9 ± 1.5 µM | Kd ([1]; ITC, range stated for KpDsbA and EcDsbA with PSPFATCD and PSPFQTCD together, read-out: Kd (range over both peptides and both DsbAs)): 11 to 18 µM

KpDsbB P2 loop peptide PSPFQTCD
Kd [2]: 16.7 µM | dH [2]: -11.1 kcal/mol | stoichiometry N [2]: 0.97

EcDsbB P2 loop peptide PSPFATCD
Kd [2]: 17.9 µM | dH [2]: -9.5 kcal/mol | stoichiometry N [2]: 0.93

DsbA (EcDsbA) (Escherichia coli (K-12))
pKa [3]: 3.3

DsbA (VcDsbA, TcpG) (Vibrio cholerae)
pKa [4]: 5.1

DsbA (thiol:disulfide interchange protein DsbA), KpDsbA (Klebsiella pneumoniae (strain 342))
pKa [5]: 3.2

DsbA (SeDsbA) (Salmonella enterica serovar Typhimurium (strain SL1344))
pKa [6]: 3.3

B1: SeDsbA: S. enterica Typhimurium DsbA (AAB81592) (protein)
chain: AQISDGKQYITLDKPVAGEPQVLEFFSFYCPHCYQFEEVLHVSDNVKKKLPEGTKMTKYHVEFLGPLGKELTQAWAVAMALGVEDKVTVPLFEAVQKTQTVQSAADIRKVFVDAGVKGEDYDAAWNSFVVKSLVAQQEKAAADLQLQGVPAMFVNGKYQINPQGMDTSSMDVFVQQYADTVKYLVDKK
modifications: left off: His6 (inferred: purified as described for KpDsbA), N-terminal, cleaved
Tm reduced ([7]; 10 µM protein, 100 mM phosphate, 1 mM EDTA, pH 7.0, 0.75 mM DTT, 1 K/min 298-368 K, SeDsbA 220.5 nm, KpDsbA 209.5 nm, two-state fit, SD from three replicates): 351 K and 351.2 ± 0.2 K and 351.2 +/- 0.2 K | Tm oxidized ([7]; 10 µM protein, 100 mM phosphate, 1 mM EDTA, pH 7.0, 1 K/min 298-368 K, SeDsbA 220 nm, KpDsbA 211 nm, two-state fit, SD from three replicates): 342.8 ± 0.4 K and 342.8 +/- 0.4 K and 343 K | stabilisation of reduced over oxidized form ([7]; SeDsbA, difference of melting temperatures): 9 K | dithiol oxidation signal without EcDsbB ([8]; samples lacking EcDsbB, DsbA plus peptide, time-resolved fluorescence): no increase in signal | rate of catalyzed disulfide bond formation ([8]; with EcDsbB, 160 nM DsbA, 1.6 μM EcDsbB membrane extract, 8 μM peptide, 50 mM MES, 50 mM NaCl, 2 mM EDTA, time-resolved fluorescence 340/615 nm, three replicates): almost indistinguishable from that of EcDsbA | E°’ (redox potential) ([9]; Table 1, ref [43] and [14]): -126 mV | pKa “Cys30” ([9]; Table 1 and comparison, ref [43] and [14]): 3.3 | pKa of nucleophilic cysteine ([9]; ref [43]): 3.3 | redox potential ([9]; ref [43]): -126 mV | insulin reductase activity [10]: weak disulfide reductants; also recorded: weak insulin reductase activity | complementation of EcDsbA, motility [11]: can complement EcDsbA; also recorded: can fully restore the motility of dsbA ^- deficient strains

B2: EcDsbC: E. coli disulfide isomerase DsbC (AAA83074) (protein, UniProt P0AEG6 21-236, looked up)
Thiol:disulfide interchange …: DDAAIQQTLAKMGIKSSDIQPAPVAGMKTVLTNSGVLYITDDGKHIIQGPMYDVSGTAPVNVTNKMLLKQLNALEKEMIVYKAPQEKHVITVFTDITCGYCHKLHEQMADYNALGITVRYLAFPRQGLDSDAEKEMKAIWCAKDKNKAFDDVMAGKSVAPASCDVDIADHYALGVQLGVSGTPAVVLSNGTLVPGYQPPKEMKEFLDEHQKMTSGK
insulin disulfide reductase activity [12]: highly active

B3: KpDsbB P2 loop peptide PSPFQTCD (peptide)
peptide: Ac-PSPFQTCD-NH2
notes: P2 loop of K. pneumoniae DsbB; source: synthetic peptide
Kd [13]: 10.9 µM
